Source: the supplement of paper PMC11246515
± gives the standard deviation of the averaged measurements.

Test: total protein half-life in vivo (active degradation + dilution); higher = more stable protein
[1] = E. coli NCM3722 delta-clpP delta-lon delta-hslV, growth: N-lim chemostat, doubling time 6 h
[2] = E. coli NCM3722 delta-clpP, growth: N-lim chemostat, doubling time 6 h
[3] = E. coli NCM3722 delta-hslV, growth: N-lim chemostat, doubling time 6 h
[4] = E. coli NCM3722 delta-lon, growth: N-lim chemostat, doubling time 6 h
[5] = E. coli NCM3722 delta-smpB, growth: N-lim chemostat, doubling time 6 h
[6] = wild type E. coli NCM3722, growth: C-lim chemostat, doubling time 3 h
[7] = wild type E. coli NCM3722, growth: C-lim chemostat, doubling time 6 h
[8] = wild type E. coli NCM3722, growth: C-lim chemostat, doubling time 12 h
[9] = wild type E. coli NCM3722, growth: N-lim chemostat, doubling time 6 h
[10] = wild type E. coli NCM3722, growth: N-lim chemostat, doubling time 12 h
[11] = wild type E. coli NCM3722, growth: P-lim chemostat, doubling time 6 h
[12] = wild type E. coli NCM3722, growth: P-lim chemostat, doubling time 12 h

Sequence	total protein half-life in vivo [1]	total protein half-life in vivo [2]	total protein half-life in vivo [3]	total protein half-life in vivo [4]	total protein half-life in vivo [5]	total protein half-life in vivo [6]	total protein half-life in vivo [7]	total protein half-life in vivo [8]	total protein half-life in vivo [9]	total protein half-life in vivo [10]	total protein half-life in vivo [11]	total protein half-life in vivo [12]
MDVRQSIHSAHAKTLDTQGLRNEFLVEKVFVADEYTMVYSHIDRIIVGGIMPITKTVSVGGEVGKQLGVSYFLERRELGVINIGGAGTITVDGQCYEIGHRDALYVGKGAKEVVFASIDTGTPAKFYYNCAPAHTTYPTKKVTPDEVSPVTLGDNLTSNRRTINKYFVPDVLETCQLSMGLTELAPGNLWNTMPCHTHERRMEVYFYFNMDDDACVFHMMGQPQETRHIVMHNEQAVISPSWSIHSGVGTKAYTFIWGMVGENQVFDDMDHVAVKDLR	5.44 ± 1.1 h	3.55 h	3.6 ± 0.5 h	3.28 ± 0.7 h	3.71 ± 0.51 h	3.43 ± 0.61 h	6.02 ± 0.23 h	10.2 ± 0.68 h	4.18 h	5.64 ± 0.57 h	5.56 h	11.6 ± 0.6 h
MDVSYLLDSLNDKQREAVAAPRSNLLVLAGAGSGKTRVLVHRIAWLMSVENCSPYSIMAVTFTNKAAAEMRHRIGQLMGTSQGGMWVGTFHGLAHRLLRAHHMDANLPQDFQILDSEDQLRLLKRLIKAMNLDEKQWPPRQAMWYINSQKDEGLRPHHIQSYGNPVEQTWQKVYQAYQEACDRAGLVDFAELLLRAHELWLNKPHILQHYRERFTNILVDEFQDTNNIQYAWIRLLAGDTGKVMIVGDDDQSIYGWRGAQVENIQRFLNDFPGAETIRLEQNYRSTSNILSAANALIENNNGRLGKKLWTDGADGEPISLYCAFNELDEARFVVNRIKTWQDNGGALAECAILYRSNAQSRVLEEALLQASMPYRIYGGMRFFERQEIKDALSYLRLIANRNDDAAFERVVNTPTRGIGDRTLDVVRQTSRDRQLTLWQACRELLQEKALAGRAASALQRFMELIDALAQETADMPLHVQTDRVIKDSGLRTMYEQEKGEKGQTRIENLEELVTATRQFSYNEEDEDLMPLQAFLSHAALEAGEGQADTWQDAVQLMTLHSAKGLEFPQVFIVGMEEGMFPSQMSLDEGGRLEEERRLAYVGVTRAMQKLTLTYAETRRLYGKEVYHRPSRFIGELPEECVEEVRLRATVSRPVSHQRMGTPMVENDSGYKLGQRVRHAKFGEGTIVNMEGSGEHSRLQVAFQGQGIKWLVAAYARLESV	6.25 ± 0.18 h	5.48 ± 0.56 h	3.81 ± 0.25 h	4.29 ± 0.12 h	3.45 ± 0.13 h	2.96 ± 0.033 h	4.72 ± 0.42 h	8.03 ± 1.1 h	3.781 ± 0.029 h	5.67 ± 0.15 h	4.83 ± 0.25 h	7.8 ± 0.18 h
MEALGMIETRGLVALIEASDAMVKAARVKLVGVKQIGGGLCTAMVRGDVAACKAATDAGAAAAQRIGELVSVHVIPRPHGDLEEVFPIGLKGDSSNL [P0ABF4]	4.35 ± 0.68 h	7.77 h	4.24 ± 0.36 h	4.82 ± 0.61 h	4.98 ± 0.22 h	2.59 ± 0.7 h	5.83 ± 0.41 h	11.5 ± 1.5 h	4.8 ± 0.3 h	7.48 ± 0.57 h	5.28 ± 0.062 h	12.1 ± 1.1 h
MEDLNVVDSINGAGSWLVANQALLLSYAVNIVAALAIIIVGLIIARMISNAVNRLMISRKIDATVADFLSALVRYGIIAFTLIAALGRVGVQTASVIAVLGAAGLAVGLALQGSLSNLAAGVLLVMFRPFRAGEYVDLGGVAGTVLSVQIFSTTMRTADGKIIVIPNGKIIAGNIINFSREPVRRNEFIIGVAYDSDIDQVKQILTNIIQSEDRILKDREMTVRLNELGASSINFVVRVWSNSGDLQNVYWDVLERIKREFDAAGISFPYPQMDVNFKRVKEDKAA [P0C0S1]	6.89 ± 0.37 h	7.53 ± 0.59 h	–	6.91 ± 1.2 h	5.91 ± 0.16 h	–	6.24 ± 0.12 h	12.81 ± 0.023 h	–	12.7 ± 0.82 h	6.423 ± 0.022 h	13.2 ± 0.67 h
MEFLMDPSIWAGLLTLVVLEIVLGIDNLVFIAILADKLPPKQRDKARLLGLSLALIMRLGLLSLISWMVTLTKPLFTVMDFSFSGRDLIMLFGGIFLLFKATTELHERLENRDHDSGHGKGYASFWVVVTQIVILDAVFSLDAVITAVGMVNHLPVMMAAVVIAMAVMLLASKPLTRFVNQHPTVVVLCLSFLLMIGLSLVAEGFGFHIPKGYLYAAIGFSIIIEVFNQIARRNFIRHQSTLPLRARTADAILRLMGGKRQANVQHDADNPMPMPIPEGAFAEEERYMINGVLTLASRSLRGIMTPRGEISWVDANLGVDEIREQLLSSPHSLFPVCRGELDEIIGIVRAKELLVALEEGVDVAAIASASPAIIVPETLDPINLLGVLRRARGSFVIVTNEFGVVQGLVTPLDVLEAIAGEFPDADETPEIITDGDGWLVKGGTDLHALQQALDVEHLADDDDIATVAGLVISANGHIPRVGDVIDVGPLHITIIEANDYRVDLVRIVKEQPAHDEDE [P0AEC0]	6.99 ± 0.2 h	6.691 ± 0.015 h	6.46 ± 0.09 h	6.27 ± 0.49 h	5.4 ± 0.28 h	–	5.88 ± 0.19 h	12.3 ± 0.92 h	6.71 ± 0.84 h	14.2 ± 0.73 h	6.06 ± 0.7 h	12.2 ± 1.3 h
MEFSFSPKRLVVAVAAALPLMASAADTPSTATARKGFAGYDHPNQYLVKPATTIADNMMPVMQHPAQDKETQQKLAELEKKTGKKPNVVVFLLDDVGWMDVGFNGGGVAVGNPTPDIDAVASQGLILTSAYSQPSSSPTRATILTGQYSIHHGILMPPMYGQPGGLQGLTTLPQLLHDQGYVTQAIGKWHMGENKESQPQNVGFDDFRGFNSVSDMYTEWRDVHVNPEVALSPDRSEYIKQLPFSKDDVHAVRGGEQQAIADITPKYMEDLDQRWMDYGVKFLDKMAKSDKPFFLYYGTRGCHFDNYPNAKYAGSSPARTSYGDCMVEMNDVFANLYKTLEKNGQLDNTLIVFTSDNGPEAEVPPHGRTPFRGAKGSTWEGGVRVPTFVYWKGMIQPRKSDGIVDLADLFPTALDLAGHPGAKVANLVPKTTFIDGVDQTSFFLGTNGQSNRKAEHYFLNGKLAAVRMDEFKYHVLIQQPYAYTQSGYQGGFTGTVMQTAGSSVFNLYTDPQESDSIGVRHIPMGVPLQTEMHAYMEILKKYPPRAQIKSD	–	–	–	–	–	–	–	–	3.56 h	–	–	–
MEFSPPLQRATLIQRYKRFLADVITPDGRELTLHCPNTGAMTGCATPGDTVWYSTSDNTKRKYPHTWELTQSQSGAFICVNTLWANRLTKEAILNESISELSGYSSLKSEVKYGAERSRIDFMLQADSRPDCYIEVKSVTLAENEQGYFPDAVTERGQKHLRELMSVAAEGQRAVIFFAVLHSAITRFSPARHIDEKYAQLLSEAQQRGVEILAYKAEISAEGMALKKSLPVTL [P0A823]	6.44 ± 0.13 h	5.88 ± 0.28 h	–	5.97 ± 0.26 h	5.41 ± 0.73 h	3.39 ± 0.092 h	6.23 ± 0.38 h	11.2 ± 0.24 h	5.71 ± 0.11 h	10.2 ± 0.88 h	5.67 ± 0.24 h	13.5 ± 1.4 h
